Measured values taken from article PMC11506642, “Cooperative Substructure and Energetics of Allosteric Regulation of the Catalytic Core of the E3 Ubiquitin Ligase Parkin by Phosphorylated Ubiquitin” (Biomolecules, 2024).

Target: T1, phosphorylated ubiquitin (UniProt P0CG47 1-76, phosphorylated (site not given))
T1 construct: ubiquitin, the mature cut product of its precursor; also called pUb; source: prepared as described [16]
Test: HDX-MS; native-state hydrogen exchange with pepsin fragmentation MS; 20 mM HEPES, 150 mM NaCl, 10 uM ZnCl2, 1 mM TCEP, 2.5% glycerol, pH 7.0, 20 °C, urea up to 4 M; ~7 uM Parkin(∆Ubl), ~12 uM pUb
Conditions: both partners purified

B1: Parkin(∆Ubl) (domain or fragment, human)
chain: SSGSPAGRSIYNSFYVYCKGPCQRVQPGKLRVQCSTCRQATLTLTQGPSCWDDVLIPNRMSGECQSPHCPGTSAEFFFKCGAHPTSDKETSVALHLIATNSRNITCITCTDVRSPVLVFQCNSRHVICLDCFHLYCVTRLNDRQFVHDPQLGYSLPCVAGCPNSLIKELHHFRILGEEQYNRYQQYGAEECVLQMGGVLCPRPGCGAGLLPEPDQRKVTCEGGNGLGCGFAFCRECKEAYHEGECSAVFEASGTTTQAYRVDERAAEQARWEAASKETIKKTTKPCPRCHVPVEKNGGCMHMKCPQPQCRLEWCWNCGCEWNRVCMGDHWFDV
notes: two extra serines that precede the Parkin residues in the construct; E3 ubiquitin ligase Parkin, human, canonical isoform (Swiss-Prot O60260-1), residues 135 through 465; RING0, RING1, IBR, REP and RING2 domains, without the Ubl domain and linker; The introduction defines the core as residues 137-461; the methods give the construct as (SS) plus 135-465; The His-SUMO fusion was cut with TEV …
binding result: binds
